# Measured values published in the nanobody polyreactivity screen of Harvey et al. (2022).
# Test: yeast display, Sf9 membrane polyspecificity reagent, FACS + sequencing; frameworks hold sequencing errors
# How it was run: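 Nanobodies came from a synthetic yeast display library in Saccharomyces cerevisiae BJ5465, induced with galactose for 36–48 hours and stained for 1 hour at 4 °C with 10% biotinylated, detergent-solubilized Sf9 membrane reagent. Cells were enriched on streptavidin microbeads and then FACS-sorted, with low and high (top ~1%) gates set on anti-HA fluorescence for expression and streptavidin fluorescence for reagent binding. Each polyreactivity label reflects the gate a clone came from. Genes were amplified by colony PCR, sequenced by MiSeq 2 × 250 and filtered by CDR length.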
row,Sequence,polyreactivity (PSR sort gate)
1,EEELVDSGGGLVQAGGSLRLSCSAYGSTFRDYAMGWYRQAPGKERELVAAITSGGTTDYADSVKGRFPISRDNAKNTVYLQMNSLKPEDTAVYYCNKDGVVAGYQYDYWGQGTQVTVSS,low polyreactivity
2,EEELVESGGGLVQAGCSLRLSCAATGSTIIWNAMGWYIQAPGKERELVAAITRSGGRTYYADSVKGRFTISRDNAKNTVYLLMNSLIPEDTAVYYCAAVIWGYYYGGKYVYYYPYGYWGQGTQVTVSS,high polyreactivity
3,EEELVESGGGLVQAGGSLRLSCAASGRTFARNAMGWYRQAPGKERELVAGINFSGGNTYYADSVKGRFTISRDNAKNTVYLQMNSLKPEDTAVYYCAARRYWEGDYWGHGTQVTVSS,low polyreactivity
4,EEELVESGGGLVQAGGSLRLSCAASGSIFVVNAMGWYRQAPGKERELVAAISRGGITNYADSVKGRFTISRDNAKNTVYLQMNSLKPEDTAVYYCNARGSRWVKPERDYWGQGTQVTVSS,low polyreactivity
5,EVQHVESGGGLVQAGGSLRLSCAASGSTFYENAMGWYRQAPGKERELVAAINWSGGRTYYADSVKGRFTISRDNAKNTVNLQMNCLKQEYTAVYYCATREYRYAHSYYWGQGTQVTVSS,high polyreactivity
6,EVQLVESGGGLVQAGGSLRLSCAASGYSFSYNTMGWYRQAPGKERELVAAITRSGGSTYYADSVKGRFTISRDNAKNTVYLQMNSLKPEDTAVYYCNRVGWRGLKKANYWGQGTQVTVSS,high polyreactivity
7,EVQLVESGGGLVQPGGSLRLSCAASGYIYRRYRMGRYRQAPGKGREFVAAISGGSSTNYADSVKGRFTNSRDNSKNTVYLQMNSLRAEDTAVYYCAAYKIDSDPRVYWGQGTQVTVSS,low polyreactivity
8,FVQAGGSLRLTCAASGSTFYGNAMGWYRQATGKERELVAGITGDGGSTYYADSVKGRFTISRDNAKNTVYLQMNSLKPEDTAVYYCAVDVIVLGQWPRQLDEFDYWGQGTQVTVSS,low polyreactivity
9,HDQHVESGGGLVQAGGSLRLSCAASGFTFYFYTMGWYRQAPGKERELVAAITGSGGSTYYADSVKARFTFSRDNAKNTVYLQMNSLKPEDTAVYYCAASYYPERVATWRGYYYWGQGTQVTVSS,high polyreactivity
10,HVHLVESGGGLVQAGGSLPLSCAASGFIISHYTMGWYRQAPGKERELVAGISWSGGNTYYADFVKGRFTISRDHAKNTVYLQMNSLKPEDTAVYYCNADWIGVPLAYDYWGQGTQVTVSS,low polyreactivity
11,HVQHVESAGGLVQAGGSLRLSCAASGSIFTYNALGGYIQAPGKERELVAAIDYSGGSTYYADSVKGRFTISRDNAKNTVYLQMNSLKPEDTAVYYCAAPWVPYPGYSLYGYDYWGQGTQVTVSS,low polyreactivity
12,HVQHVESGGGLVQAGGSLRLSCAASGRIFRPNAMGRYRQAPGKERELVAAITSNGGRTYYADSVKGRFTISRDNAKTTVYLQMTSQKPEDTAVYYCNAAPFRSGYGYWGQGTQVNVSS,high polyreactivity
13,HVQLEESGGGLVQAGGSLRLSCAASGFTFNRYAMGWYRQAPGKERELVAAISSGGRTYYADSVKGRFTISRDNAKNTVYLQMNRLKPDDTAVYYCAADWSLYSHEFDYWGQGTQVTVSS,high polyreactivity
14,HVQLGESGGGLVQAGGSLRLSCAASGFIFDVYAMGWYRQAPGKERELVAAISSSGGRTYYADSVKGRFTISRDNAKNTVYLQMNSLKPEDTAVYYCAAKTHSRTKVYTADYWGQGTQVTVSS,high polyreactivity
15,HVQLQESGGGLVQAGGSLRLSCAASGSIFQATYMGWYRQAPGKEREFVASITYGSITNYADSVKGRFTIGRDNAKDTLYLQMNSLKPEDTAVYYCAVDRHYIPAFHYWGQGTEVTVSS,low polyreactivity
16,HVQLQESGRRPGAAGGSPRMSCAASGNIYWVAVMGRYRQAPGEERELVASIGFGCTTYYADSVKCRFTISRDNAKNTVYLQMISLKPEDTAVYYCAAPHYDWGELDYWGQGTQVPVSS,low polyreactivity
17,HVQLQESGVGLVQAGGSLRLSCAASGTISQEYWMGWYRQAPGKEREFVAAIGLGSNTNYADSLKGRFTISRDNSTNTVFLQMNSLKPEDTAVYYCAVSVWQYSDHVYRGQGTQVTVSS,low polyreactivity
18,HVQLVESAGGLVPAGGSLRLSCAASGFIVWWYPMGWYRQAPGKERELVASITRGGRTNYADSVKGRFTISRDNAKNTVYLHMNSLKPEDTAVYYCAADVLLSRSNTPQRPSRLYYWGQVTQVTVSS,high polyreactivity
19,HVQLVESGGGLVQAGASLRLSCAASGRIFGRNAMGWYRQAPGKERELVAAISGNGGSTYYADSVKGRFTISRDIAKNTVYLQMNSLKPEDTAGYYCATKYFSRMDYWGQGTQVTVSS,high polyreactivity
20,HVQLVESGGGLVQAGGSLRFSCAASVSTLRWNAMGWYRQAPAKEREMVAAITYSGGSTYYADSVKGLFTISRDNAKNTVYLQMNSLKPEDTAVYYCAADSYRYRPGYGPVLYDYWGQGTQVTVSS,high polyreactivity
21,HVQLVESGGGLVQAGGSLRLSCAASGFIFKPYDMGLYRQAPGKERELVAAISWTGTSTYYADSVKGRFTISRDNAKNTVYLQINSLKPEDTAVFYCAKRWSAGAQHGFDYWGQGTQVTLSS,low polyreactivity
22,HVQLVESGGGLVQAGGSLRLSCAASGFIFQSYAMGWYRQAPGKERELVASISASGGSTYYADSVKGRFTISRDNAKNTVYLQMNSLKPEDTAVYYCAAGYWSYWSLRMDYWGQGTQVTVSS,high polyreactivity
23,HVQLVESGGGLVQAGGSLRLSCAASGFIIGYYAMGWYRQAPGKERELVASITWSTTSTYYADSVKGRFTISRDNAKNTVYLQMNSLKPEDTAVYYCAADLQSKLPSSIYIGDYWGQGTQVTVSS,low polyreactivity
24,HVQLVESGGGLVQAGGSLRLSCAASGFTFARYAMGWYRQAPGKERDLVATITRSGDSTNYADSVKGRFTISRDNAKNTVYLQMNSLKPEDTAVYYCNRRYPIWYRTMNYWGQGTQVTVSS,high polyreactivity
25,HVQLVESGGGLVQAGGSLRLSCAASGFTSYLYTMGWYRQAPGKERELVAAISNSGGNTYYADSVKGRFTISRDNAKNTVYLQMNSLKPEDTAVYYCAARLFAAKYRYGYWGQGTQVTVSS,high polyreactivity
26,HVQLVESGGGLVQAGGSLRLSCAASGIIFITNAMGWYRQAPGKERELVAAISSTVSTYYADSVKGRFTISRDKAKNTVYLQMNRLKPADTAVYYCAAEWGLTQGESIYDYWGQGTQVTVSS,low polyreactivity
27,HVQLVESGGGLVQAGGSLRLSCAASGIIFNLYAMGWYRQAPVKERELFAAISWSGGSTYYADSVKGRFTISRDNAKNTVYLKMNSLKPEDTAVYYCAAQRSVFKSFRTTYVRYDYWGQGTQVTVSS,high polyreactivity
28,HVQLVESGGGLVQAGGSLRLSCAASGLIFKRYAIGGYRKAPGKERELVAAISYSGGSTYYEDSVKGRFTISRDYAKNTVYLQMNSLKPEDTAVYYCNAQSYRSDSAYHYKYDYWGQGTQVTVSS,high polyreactivity
29,HVQLVESGGGLVQAGGSLRLSCAASGLTFQYNAMGWYRQAPGKERELVATISQSGGSTYYADSVKGRFTISRDNAKNTVYLQMNSLKPEDTAVYYCAAYRAWTWRIRYDYWGQGTQVTVSS,low polyreactivity
30,HVQLVESGGGLVQAGGSLRLSCAASGRIFGAYAMGWYRQAPGKEREFVAAITSRGGNTYYADSVKGRFTISRDNAKNTVYLQMNSLIPEDTAVYYCAARHDKRRQYYVGQSAFDYWGQGTQVTVSS,low polyreactivity
